Laboratory results taken from US20170173114A1, “METHODS AND COMPOSITIONS FOR INDUCTION OF UCP1 EXPRESSION” (Joslin Diabetes Center, Inc., priority 2014, published 2017).

Legend:
WT-1 brown preadipocytes = experiment: Extracellular acidification rate (glycolysis) profile in FGF6 overexpressing WT-1 brown preadipocytes; assay type: cell-based, murine; conditions: FGF6 overexpressing WT-1 vs control cells
Description: To determine whether nutrient supply could regulate mitochondrial activity in FGF6-treated cells, concentrations of glucose in the assay media of cells were manipulated and measured in the Seahorse Bioanalyzer. FGF6 was stably expressed in WT-1 brown preadipocytes and 3T3-F442A white preadipocytes. Stable cells were generated by viral infection followed by drug selection.
A profile of the extracellular acidification rate (ECAR) was developed as described in FIG. 20A. 10 mM glucose was added to the assay media, which was then taken up by the cells and catabolized through glycolysis, producing ATP and protons, and resulting in a rapid increase in ECAR. […] Lastly, the glycolysis inhibitor 2-DG was added to measure […].

UCP1 [1] = experiment: UCP1 mRNA expression in SVF cells from subcutaneous white adipose tissue (SQ-SVF); assay type: cell-based, C57BL/6 mice; conditions: growth media, 3 days; vs control
Description: (§1) Eight 6-week old C57BL/6 male mice were sacrificed. Interscapular BAT and axillary subcutaneous WAT were removed, minced and digested with 1 mg/ml collagenase for 45 minutes at 37° C. in DMEM/F12 media, containing 1% BSA and antibiotics. Digested tissues were filtered through sterile 150 μm nylon mesh and centrifuged at 250×g for 5 minutes. The floating fractions consisting of adipocytes were discarded and the pellets representing the SVF were then resuspended in erythrocyte lysis buffer (154 mM NH4Cl, 10 mM KHCO3, 0.1 mM EDTA) for 10 minutes to remove red blood cells. The cells were further centrifuged at 500×g for 5 minutes, plated at 8×10^5 cells/well of a 24-well plate and grown at 37° C. in DMEM/F12 supplemented with 10% FBS at 37° C.
(§2) To determine if FGF6 treatment of primary adipose progenitors could also increase UCP1 expression as observed in Example 1, stromo-vascular fraction (SVF) cells, which comprise adipocyte progenitors, were isolated from interscapular brown adipose tissue (BAT-SVF) and subcutaneous white adipose tissue (SQ-SVF). SVF cells were subsequently treated with FGF6 or FGF21 in growth media (DMEM+10% FBS) for 3 days, followed by determination of UCP1 expression. As described in FIGS. 9A and 9B, FGF21 treatment had little effect on UCP1 mRNA expression in either type of SVF cells, as compared to the control. […]

mature brown adipocytes = experiment: Oxygen consumption rate in mature brown adipocytes (Seahorse); assay type: cell-based; conditions: 24 hours; vs buffer
Description: To assess mitochondrial respiration, a Seahorse Extracellular Flux Analyzer (Seahorse Bioscience Inc., North Billerica, Mass.) was used to quantify oxygen consumption rates (OCR) of differentiated […] brown adipocytes. Wt-1 brown preadipocyte cells were seeded on 24-well format plates and allowed to adhere overnight. After adipogenic induction for 8 days, OCR was analyzed. To measure OCR […] oxidative phosphorylation, 0.5 μM oligomycin (EMD Chemicals Inc., Gibbstown, N.J.) was added to cells. Subsequently, 0.8 μM FCCP (carbonyl cyanide-p-trifluoromethoxyphenylhydrazone) and 1 μM respiratory chain inhibitors (rotenone) were added to measure maximal respiration and basal rates of nonmitochondrial respiration. As shown in FIGS. 23A and 23B, treatment of FGF6 enhanced oxygen consumption and glucose uptake in mature brown adipocytes. Thus, FGF6 was able to activate the mature brown adipocyte's ability to use glucose and increase energy expenditure without inducing UCP-1.

UCP1 [2] = experiment: UCP1 mRNA expression in SVF cells from interscapular brown adipose tissue (BAT-SVF); assay type: cell-based, C57BL/6 mice; conditions: growth media, 3 days; vs control
Description: as §1, §2

[3] = system: PPARγ, aP2, FAS, PRDM16, PGC1α, CIDEA; experiment: Adipogenic and brown fat marker mRNA expression in WT-1 brown preadipocytes; assay type: cell-based, murine
Description: Total RNA was isolated with QIAzol lysis reagent (Qiagen, Valencia, Calif.) and purified by RNeasy Mini columns (Qiagen) following the manufacture's instructions. cDNA was prepared from total RNA using the Advantage RT-PCR kit (BD Biosciences, Palo Alto, Calif.) according to manufacturer's instructions. Diluted cDNA was used in a PCR reaction with SYBR Green Master Mix (Applied Biosystems, Foster City, Calif.) and primers specifically designed for detection of the gene of interest. PCR reactions were run in duplicate for each sample and quantitated in the ABI Sequence Detection System (Applied Biosystems). Data were expressed as arbitrary units after normalization to levels of expression of internal controls for each sample. Sequences of primers for specific genes are each obtained from the published literature or designed using publically available gene sequence databases. Unless otherwise indicated, gene expression data described in the examples below was obtained using QPCR.
The effect of FGF6 on differentiation of WT-1 murine brown preadipocytes was also examined. WT-1 cells can be induced to undergo brown adipocyte differentiation, characterized by lipid accumulation and expression of adipogenic and brown fat markers, as described above (Klein et al. (1999) J Biol Chem 274:34795; Tseng et al. (2005) Nat Cell Biol 7:601). WT-1 cells were treated with FGF6 in growth media (DMEM+10% FBS), a vehicle control (“control” or “C” referred to in FIGS. 3A-D), or induction media (“induction” or “I” referred to in FIGS. 3A-D) as described above for seven days. Following the treatment, cells were examined for the color of the culture media in combination with oil Red O staining, expression of adipogenic markers, expression of brown fat markers, immunofluorescent staining of cells with UCP1 and DPAI, and Western blot analysis to determine the presence of UCP1 and β-tubulin. The results are described in FIGS. 3A to 3D.
FGF2, FGF6 and FGF9 were used at a dosage of 50 ng/mL, 100 ng/mL, 200 ng/mL or 300 ng/mL. FGF21 was used at the dosage of 50 ng/ml and 500 ng/mL. The concentration of BMP7 was 3.3 nM. RNA was isolated and UCP1 and PPARγ expression levels were evaluated by quantitative reverse transcription polymerase chain reaction (Q-RT-PCR) analysis after 24 hours (i.e., 1 day) (FIG. 14A), 2 days (FIG. 14B), 5 days (FIG. 14C) and 7 days (FIG. 14D) of treatment. All experiments were performed triplicate and the data are presented as mean+/−SEM.
FGF2, FGF6 and FGF9 were used at a dosage of 200 ng/mL. FGF21 was used at a dosage of 500 ng/mL. The concentration of BMP7 was 3.3 nM. mRNA was isolated and UCP1 and PPARγ expression levels were evaluated by quantitative reverse transcription polymerase chain reaction (Q-RT-PCR) analysis after 24 hours (i.e., 1 day), 2 days, 5 days and 7 days of treatment (FIG. 15). All experiments were performed triplicate and the data are presented as mean+/−SEM.

B1: FGF6: fibroblast growth factor 6; recombinant human FGF from R&D Systems, or mouse FGF6 cDNA overexpressed by lentiviral vector (protein)
chain: KRQRRLYCNVGIGFHLQVLPDGRISGTHEENPYSLLEISTVERGVVSLFGVRSALFVAMNSKGRLYATPSFQEECKFRETLLPNNYNAYESDLYQGTYIALSKYGRVKRGSKVSPIMTVTHFLPRI
With B1 the “cellular glycolysis, glycolytic capacity and glycolytic reserve (ECAR)” value (WT-1 brown preadipocytes) was “increase in cellular glycolysis, glycolytic capacity and glycolytic reserve”, the “increase in UCP1 mRNA expression in SVF from subcutaneous WAT” value (UCP1 [1]) was roughly 200 fold and the “oxygen consumption in mature brown adipocytes” value (mature brown adipocytes) was “enhanced”. The “increase of UCP1 mRNA expression in BAT-SVF” value (UCP1 [2]) was 4 fold, the “PPARγ expression level, time course” value ([3]; 200 ng/mL with insulin and T3, 1, 2, 5, 7 days) was “very low levels of PPARγ” and the PPARγ expression level ([3]; 50-300 ng/mL with insulin and T3, 1, 2, 5 and 7 days) was “very low levels of PPARγ”. For the same molecule, the “expression of transcriptional regulators of UCP1 (PGC1α, PPARγ, PRDM16)” value ([3]; 50-300 ng/mL, three days) was “did not increase”, the “mRNA expression of other brown fat markers (PRDM16, PGC1α, CIDEA)” value ([3]; WT-1, seven days) was “did not, in contrast, have as significant an impact” and the “mRNA expression of adipogenic markers (PPARγ, aP2, FAS)” value ([3]; WT-1, seven days, control, induction media or FGF6) was “only the induction media significantly increased each of the adipogenic markers”.
